The record followed here is US20240191211A1, “BIOLUMINESCENCE-TRIGGERED PHOTOCATALYTIC LABELING” (Promega Corporation, priority 2022, published 2024).

The nature of test [1]: Brightness and BRET efficiency to a bound HaloTag TMR-fluorescent ligand. Conditions: versus HaloTag-LgBiT configuration, complemented with VS-HiBiT. The class given is biochemical. The source says:
The efficiency of bioluminescence-triggered catalyst activation depends on the emission intensity of the luciferase energy donor, spectral overlap between luciferase emission and catalyst excitation, proximity between the luciferase and catalyst, and capacity of the complex to adopt a conformation favorable for efficient energy transfer between the two. First, the influence of the NanoLuc-HaloTag fusion orientation on the efficiency of bioluminescence resonance energy transfer (BRET) to a bound HaloTag TMR-fluorescent ligand was tested. To this end, fusions either untethered or tethered to a HaloTag TMR-fluorescent ligand were diluted in TBS+0.01% BSA to a final concentration of 6.6 nM and then treated with 10× fluorofurimazine at a final concentration of 20 M. Following 3 minutes incubation, raw luminescence (Total RLU) or filtered luminesces for donor (e.g., 450 nm/8 nm BP) and acceptor (600 nm LP) emissions, respectively were measured on a GloMax® Discover plate reader (Promega). BRET ratios were further calculated for each sample by dividing the acceptor emission value by its donor emission value. While both orientations delivered equivalent brightness one of them NanoLuc-HaloTag provided greater BRET efficiency (FIG. 16A), which is likely due to greater proximity between NanoLuc's substrate binding site and the bound fluorescent ligand. […]

The subject of test [2] is VS-HiBiT peptide. Description: Complementation affinity with VS-HiBiT peptide. Conditions: versus HaloTag-LgBiT configuration. It counts as binding. The source says: Such configuration offers a modality agnostic approach for proximity between the photocatalytic complex and protein of interest genetically fused to HiBiT as well as greater spatial control over photocatalytic reactivity. First, the properties of the bioluminescent complementation reporter comprising VS-HiBiT peptide and either HaloTag-LgBiT or LgBiT-HaloTag were compared (FIG. 23 A-C). To determine complementation affinity, equal volumes of VS-HiBiT peptide serially diluted in TBS+0.01% BSA to final concentrations of 200-0 nM and HaloTag-LgBiT or LgBiT-HaloTag diluted in TBS+0.01% BSA to a final concentration of 0.2 nM were combined in wells of a white 96-well plate and mixed for 30 minutes. Following a 3-minutes treatment with either 10× furimazine or fluorofurimazine at a final concentration 20 M, bioluminescence was measured on a GloMax® Discover plate reader (Promega), and binding affinity (Kd) was derived from a saturation binding curve of luminescence against VS-HiBiT concentration (FIG. 23A). […] Following a 3-minutes treatment with either 10× furimazine or fluorofurimazine at a final concentration 20 M, raw luminescence (Total RLU; FIG. 23B) or filtered luminesces of donor (e.g., 450 nm/8 nm BP) and acceptor (600 nm LP) emissions were measured on a GloMax® Discover plate reader (Promega). […]
Background: The HiBiT peptide binds its large partner to form an active luciferase.

B1: VS-HiBiT/LgBiT-HaloTag: bioluminescent complementation reporter comprising VS-HiBiT peptide and LgBiT-HaloTag (protein)
chain: MVFTLEDFVGDWEQTAAYNLDQVLEQGGVSSLLQNLAVSVTPIQRIVRSGENALKIDIHVIIPYEGLSADQMAQIEEVFKVVYPVDDHHFKVILPYGTLVIDGVTPNMLNYFGRPYEGIAVFDGKKITVTGTLWNGNKIIDERLITPDGSMLFRVTINSMAEIGTGFPFDPHYVEVLGERMHYVDVGPRDGTPVLFLHGNPTSSYVWRNIIPHVAPTHRCIAPDLIGMGKSDKPDLGYFFDDHVRFMDAFIEALGLEEVVLVIHDWGSALGFHWAKRNPERVKGIAFMEFIRPIPTWDEWPEFARETFQAFRTTDVGRKLIIDQNVFIEGTLPMGVVRPLTEVEMDHYREPFLNPVDREPLWRFPNELPIAGEPANIVALVEEYMDWLHQSPVPKLLFWGTPGVLIPPAEAARLAKSLPNCKAVDIGPGLNLLQEDNPDLIGSEIARWLSTLEISG
modifications: left off: large carriers
Regarding B1, the “BRET efficiency, fold greater” value in test [1] is listed as 1.5-2 fold. Also, the “complementation affinity, fold higher” value in test [2] stood at 3 fold.
